Assays:
Experiment in all cases: IP/MS, LZTR1 wild type-FLAG, U87
TTC27 = TTC27 (human, UniProt Q6P3X3 1-843)
Summary of the method: (§1)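 Gel slices were reduced with 5 mM DTT, alkylated with 11 mM IAA and digested overnight at 37° C. with trypsin. Peptides were analysed on an Orbitrap Fusion Tribrid by LC-MS/MS.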

BUB1 = BUB1 (human, UniProt O43683 1-1085, limits assumed)
Summary of the method: as §1

ANKRD52 = molecular target: T1, ANKRD52 (human, UniProt Q8NB46 1-1076)
T1 sequence (looked up): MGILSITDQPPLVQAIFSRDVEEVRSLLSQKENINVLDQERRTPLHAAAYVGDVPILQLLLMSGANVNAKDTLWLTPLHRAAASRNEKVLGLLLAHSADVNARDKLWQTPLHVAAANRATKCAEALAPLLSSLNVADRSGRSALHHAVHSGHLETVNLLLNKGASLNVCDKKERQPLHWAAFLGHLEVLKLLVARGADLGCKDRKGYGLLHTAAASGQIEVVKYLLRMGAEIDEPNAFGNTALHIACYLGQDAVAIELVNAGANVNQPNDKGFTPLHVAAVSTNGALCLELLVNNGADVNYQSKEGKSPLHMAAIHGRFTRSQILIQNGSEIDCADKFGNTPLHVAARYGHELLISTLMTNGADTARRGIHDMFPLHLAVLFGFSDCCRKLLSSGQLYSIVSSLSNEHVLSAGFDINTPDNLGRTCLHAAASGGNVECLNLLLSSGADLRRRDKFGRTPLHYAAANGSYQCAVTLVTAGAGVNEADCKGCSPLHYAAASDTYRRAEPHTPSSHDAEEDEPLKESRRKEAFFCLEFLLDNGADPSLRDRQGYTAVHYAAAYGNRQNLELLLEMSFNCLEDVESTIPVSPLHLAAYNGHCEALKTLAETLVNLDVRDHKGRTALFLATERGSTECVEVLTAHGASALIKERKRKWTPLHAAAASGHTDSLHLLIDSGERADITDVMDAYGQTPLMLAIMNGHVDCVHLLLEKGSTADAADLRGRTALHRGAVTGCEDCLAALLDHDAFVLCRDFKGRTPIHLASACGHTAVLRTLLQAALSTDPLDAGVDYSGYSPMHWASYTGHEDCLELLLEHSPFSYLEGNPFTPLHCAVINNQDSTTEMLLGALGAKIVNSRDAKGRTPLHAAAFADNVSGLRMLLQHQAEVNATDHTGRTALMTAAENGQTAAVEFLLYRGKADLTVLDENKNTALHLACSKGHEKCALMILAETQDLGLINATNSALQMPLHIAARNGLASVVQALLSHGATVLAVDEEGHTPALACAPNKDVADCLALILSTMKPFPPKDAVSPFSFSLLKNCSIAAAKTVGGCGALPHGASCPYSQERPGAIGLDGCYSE
Summary of the method: as §1

CDC42BPB = CDC42BPB (human, UniProt Q9Y5S2 1-1711)
Summary of the method: as §1

Measured: binding result

Chain of CDC42BPB (Q9Y5S2 whole entry): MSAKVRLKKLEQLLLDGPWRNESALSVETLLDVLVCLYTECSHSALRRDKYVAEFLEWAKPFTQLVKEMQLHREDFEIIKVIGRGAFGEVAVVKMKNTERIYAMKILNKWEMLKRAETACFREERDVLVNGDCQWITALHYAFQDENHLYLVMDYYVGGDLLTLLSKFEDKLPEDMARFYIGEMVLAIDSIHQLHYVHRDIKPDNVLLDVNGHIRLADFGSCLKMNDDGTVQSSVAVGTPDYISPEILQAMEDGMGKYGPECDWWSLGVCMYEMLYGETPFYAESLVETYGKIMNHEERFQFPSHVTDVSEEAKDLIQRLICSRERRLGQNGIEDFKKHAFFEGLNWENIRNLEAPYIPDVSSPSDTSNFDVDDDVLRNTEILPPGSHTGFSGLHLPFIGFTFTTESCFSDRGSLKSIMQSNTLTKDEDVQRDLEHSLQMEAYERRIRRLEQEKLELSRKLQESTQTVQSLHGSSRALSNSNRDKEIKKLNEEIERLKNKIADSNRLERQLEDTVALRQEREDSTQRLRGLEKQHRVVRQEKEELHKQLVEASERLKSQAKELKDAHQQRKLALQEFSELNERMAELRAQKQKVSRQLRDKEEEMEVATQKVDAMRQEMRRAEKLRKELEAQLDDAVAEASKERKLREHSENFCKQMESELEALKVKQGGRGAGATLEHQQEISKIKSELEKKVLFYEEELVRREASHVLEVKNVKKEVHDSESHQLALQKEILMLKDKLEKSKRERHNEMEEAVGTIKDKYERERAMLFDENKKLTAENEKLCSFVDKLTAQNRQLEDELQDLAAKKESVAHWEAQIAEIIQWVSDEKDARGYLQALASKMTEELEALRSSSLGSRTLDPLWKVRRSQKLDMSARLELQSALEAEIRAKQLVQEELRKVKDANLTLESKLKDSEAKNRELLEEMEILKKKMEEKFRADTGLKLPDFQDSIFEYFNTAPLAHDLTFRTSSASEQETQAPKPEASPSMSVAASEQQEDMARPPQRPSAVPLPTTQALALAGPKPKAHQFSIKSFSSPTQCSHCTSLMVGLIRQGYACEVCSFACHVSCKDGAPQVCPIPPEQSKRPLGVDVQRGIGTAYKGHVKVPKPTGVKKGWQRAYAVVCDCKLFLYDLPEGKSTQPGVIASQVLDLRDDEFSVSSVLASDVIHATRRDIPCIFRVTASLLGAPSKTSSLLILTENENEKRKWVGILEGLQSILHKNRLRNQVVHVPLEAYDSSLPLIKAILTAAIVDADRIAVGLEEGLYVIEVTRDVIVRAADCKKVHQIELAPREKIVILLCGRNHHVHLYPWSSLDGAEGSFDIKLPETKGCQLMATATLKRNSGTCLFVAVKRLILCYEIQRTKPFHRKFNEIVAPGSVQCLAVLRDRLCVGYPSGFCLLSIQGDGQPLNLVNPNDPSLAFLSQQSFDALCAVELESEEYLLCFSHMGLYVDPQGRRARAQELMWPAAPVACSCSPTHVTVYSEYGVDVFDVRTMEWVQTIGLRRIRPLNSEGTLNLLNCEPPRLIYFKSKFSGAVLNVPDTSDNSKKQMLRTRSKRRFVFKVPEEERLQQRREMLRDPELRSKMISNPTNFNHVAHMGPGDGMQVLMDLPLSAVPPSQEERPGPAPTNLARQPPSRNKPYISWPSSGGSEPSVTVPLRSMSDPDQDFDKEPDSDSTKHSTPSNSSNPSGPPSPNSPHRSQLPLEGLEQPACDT
Chain of BUB1 (O43683 whole entry): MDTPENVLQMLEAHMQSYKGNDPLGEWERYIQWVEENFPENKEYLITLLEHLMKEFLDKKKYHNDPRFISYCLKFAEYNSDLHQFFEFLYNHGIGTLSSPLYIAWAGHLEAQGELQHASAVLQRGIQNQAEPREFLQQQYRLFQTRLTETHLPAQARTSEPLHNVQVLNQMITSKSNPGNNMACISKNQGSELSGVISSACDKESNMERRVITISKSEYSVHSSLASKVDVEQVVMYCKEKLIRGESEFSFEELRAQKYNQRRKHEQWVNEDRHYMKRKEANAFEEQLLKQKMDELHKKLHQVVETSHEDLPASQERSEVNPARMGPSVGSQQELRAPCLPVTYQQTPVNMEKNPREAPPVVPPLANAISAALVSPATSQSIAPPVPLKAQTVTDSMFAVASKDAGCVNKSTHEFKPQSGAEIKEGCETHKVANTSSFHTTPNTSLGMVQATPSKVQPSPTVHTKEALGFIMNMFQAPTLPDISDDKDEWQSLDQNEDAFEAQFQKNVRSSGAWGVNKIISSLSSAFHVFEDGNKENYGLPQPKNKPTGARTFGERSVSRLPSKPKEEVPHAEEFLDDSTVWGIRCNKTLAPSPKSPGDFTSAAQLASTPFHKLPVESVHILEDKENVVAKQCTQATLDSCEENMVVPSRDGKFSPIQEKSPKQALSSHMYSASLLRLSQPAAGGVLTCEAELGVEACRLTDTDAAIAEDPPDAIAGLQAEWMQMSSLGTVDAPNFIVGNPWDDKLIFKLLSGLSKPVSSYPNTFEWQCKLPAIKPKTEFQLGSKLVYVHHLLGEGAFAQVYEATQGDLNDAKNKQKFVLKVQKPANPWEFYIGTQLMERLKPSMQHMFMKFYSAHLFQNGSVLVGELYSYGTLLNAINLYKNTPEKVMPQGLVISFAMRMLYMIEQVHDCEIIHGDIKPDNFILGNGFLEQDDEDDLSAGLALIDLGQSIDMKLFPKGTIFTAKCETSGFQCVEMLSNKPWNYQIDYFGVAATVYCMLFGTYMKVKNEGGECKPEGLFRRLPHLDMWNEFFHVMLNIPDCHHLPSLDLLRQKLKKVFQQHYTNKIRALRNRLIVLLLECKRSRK

B1: LZTR1-FLAG (other, human, UniProt Q8N653 1-840, looked up)
chain: MAGPGSTGGQIGAAALAGGARSKVAPSVDFDHSCSDSVEYLTLNFGPFETVHRWRRLPPCDEFVGARRSKHTVVAYKDAIYVFGGDNGKTMLNDLLRFDVKDCSWCRAFTTGTPPAPRYHHSAVVYGSSMFVFGGYTGDIYSNSNLKNKNDLFEYKFATGQWTEWKIEGRLPVARSAHGATVYSDKLWIFAGYDGNARLNDMWTIGLQDRELTCWEEVAQSGEIPPSCCNFPVAVCRDKMFVFSGQSGAKITNNLFQFEFKDKTWTRIPTEHLLRGSPPPPQRRYGHTMVAFDRHLYVFGGAADNTLPNELHCYDVDFQTWEVVQPSSDSEVGGAEVPERACASEEVPTLTYEERVGFKKSRDVFGLDFGTTSAKQPTQPASELPSGRLFHAAAVISDAMYIFGGTVDNNIRSGEMYRFQFSCYPKCTLHEDYGRLWESRQFCDVEFVLGEKEECVQGHVAIVTARSRWLRRKITQARERLAQKLEQEAAPVPREAPGVAAGGARPPLLHVAIREAEARPFEVLMQFLYTDKIKYPRKGHVEDVLLIMDVYKLALSFQLCRLEQLCRQYIEASVDLQNVLVVCESAARLQLSQLKEHCLNFVVKESHFNQVIMMKEFERLSSPLIVEIVRRKQQPPPRTPLDQPVDIGTSLIQDMKAYLEGAGAEFCDITLLLDGHPRPAHKAILAARSSYFEAMFRSFMPEDGQVNISIGEMVPSRQAFESMLRYIYYGEVNMPPEDSLYLFAAPYYYGFYNNRLQAYCKQNLEMNVTVQNVLQILEAADKTQALDMKRHCLHIIVHQFTKVSKLPTLRSLSQQLLLDIIDSLASHISDKQCAELGADI
notes: Expressed in HEK 293T, HeLa or U87 cells; used as cell lysate; also called LZTR1 wild type-FLAG; LZTR1 WT; not shown: FLAG tag at the C-terminus
binds: all assays above
